Experimental data as given in publication PMC7207076 (Biochemistry, 2020).
Non-standard residues stand in square brackets, D forms with d. No end group written: not given here. Lys(Me3) = C[N+](C)(C)CCCC[C@H](N)C(=O)O

Tests used:
[1] = molecular target: T1, KDM5A1–797 (Homo sapiens, UniProt P29375); assay type: biochemical; conditions: for KDM5A1–797 activity normalized to the 18mer WT peptide reaction (100%): H3K4me3 basic patch mutant/deletion peptides
T1 sequence (P29375 1-797): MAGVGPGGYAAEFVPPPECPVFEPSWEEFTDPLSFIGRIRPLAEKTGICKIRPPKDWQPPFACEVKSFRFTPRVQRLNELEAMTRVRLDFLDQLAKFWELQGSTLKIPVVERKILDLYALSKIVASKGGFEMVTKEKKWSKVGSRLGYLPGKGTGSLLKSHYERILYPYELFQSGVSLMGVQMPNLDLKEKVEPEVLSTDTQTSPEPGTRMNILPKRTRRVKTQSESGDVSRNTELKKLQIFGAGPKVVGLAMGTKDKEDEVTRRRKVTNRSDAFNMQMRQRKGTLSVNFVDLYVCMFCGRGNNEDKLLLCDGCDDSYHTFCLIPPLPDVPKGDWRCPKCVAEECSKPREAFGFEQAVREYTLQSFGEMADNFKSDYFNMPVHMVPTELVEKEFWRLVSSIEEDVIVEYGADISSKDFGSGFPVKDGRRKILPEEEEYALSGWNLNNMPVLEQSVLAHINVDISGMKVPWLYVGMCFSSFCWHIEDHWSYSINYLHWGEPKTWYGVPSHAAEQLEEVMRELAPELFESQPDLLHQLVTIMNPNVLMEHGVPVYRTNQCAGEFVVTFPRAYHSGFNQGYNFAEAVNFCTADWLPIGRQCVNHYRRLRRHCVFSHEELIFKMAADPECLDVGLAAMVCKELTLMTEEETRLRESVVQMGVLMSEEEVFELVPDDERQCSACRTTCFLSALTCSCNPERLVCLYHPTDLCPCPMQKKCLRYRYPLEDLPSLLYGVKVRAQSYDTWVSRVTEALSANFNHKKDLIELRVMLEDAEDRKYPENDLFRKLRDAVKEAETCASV

[2] = molecular target: T1, KDM5A1–797; assay type: biochemical; conditions: for fold increase of KMapp compared to the 18mer WT peptide: H3K4me3 basic patch (K14-K18) deletion/mutant/acetylated peptides; for kcat: 21mer H3K4me3 peptide substrates, saturating (20 μM) effector peptide (unmodified H3 10mer, aa 1–10), means ± SEM of two independent experiments, SEM; for fold increase of KMapp relative to 21mer WT peptide: 21mer H3K4me3 peptides, PHD1 domain saturated with effector peptide

Substance	kcat [2] [s⁻¹]	fold increase of KMapp relative to 21mer WT peptide [2]	also measured
13mer: 13mer H3K4me3 peptide lacking the K14-K18 basic patch (ARTKQTARKSTGG; K4me3; UniProt P68431 2-14, looked up, fragment)			KDM5A1–797 activity normalized to the 18mer WT peptide reaction (100%) ([1]; two independent experiments): 28%−35%; fold increase of KMapp compared to the 18mer WT peptide [2]: 8 fold
18mer-K14A/R17A/K18A: 18mer H3K4me3 peptide, K14A/R17A/K18A triple mutant (ART[Lys(Me3)]QTARKSTGGAAPAA; UniProt P68431 2-19, looked up, variant K14A R17A K18A)			KDM5A1–797 activity normalized to the 18mer WT peptide reaction (100%) ([1]; two independent experiments): 28%−35%; fold increase of KMapp compared to the 18mer WT peptide [2]: 8 fold
H3K18me3 (aa 12—32): H3 peptide aa 12—32 trimethylated at K18			demethylation of H3K18me3 peptide by KDM5A1—797 ([1]; peptide incubated with KDM5A1—797 (Figure S3)): no demethylation was detected
K9A: 21mer H3K4me3 peptide with K9A mutation	0.061 ± 0.002		
Q5A: 21mer H3K4me3 peptide with Q5A mutation	0.056 ± 0.003	> 30 fold	KDM5A1–797 activity normalized to the 21mer H3K4me3 WT peptide reaction (100%) ([1]; 21mer H3K4me3 alanine mutant peptides, two independent experiments): ~ 20%
R2A: 21mer H3K4me3 peptide with R2A mutation	0.069 ± 0.002	~ 12 fold	fold rescue in demethylation in the presence of the effector peptide ([1]; 20 μM effector (unmodified 10mer H3 peptide), 21mer H3K4me3 mutant peptide): ~ 3 fold
R8A: 21mer H3K4me3 peptide with R8A mutation	0.054 ± 0.002	~ 4 fold	
T3A: 21mer H3K4me3 peptide with T3A mutation	0.056 ± 0.001		
T6A: 21mer H3K4me3 peptide with T6A mutation	0.075 ± 0.004	~ 8 fold	
T6S: 21mer H3K4me3 peptide with T6 mutated to serine	0.070 ± 0.002		
T6V: 21mer H3K4me3 peptide with T6 mutated to valine	0.050 ± 0.003	3 fold	
WT: H3 N-terminal 21mer (aa A1-A21) H3K4me3 wild-type peptide substrate	0.052 ± 0.001		
